Residue numbers refer to the chain shown, from its start. In names and notes the source's numbering stands. Blank lines part the entries; values can stand above or below the binder they belong to.
Tests used:
[1] = target: rHuman ErbB2/Fc Chimera (human) (UniProt P04626); experiment: ECL (MSD) multispot assay, antigen spotted; blank spot of this row 236
[2] = target: rHuman ErbB2/Fc Chimera (human) (UniProt P04626); experiment: ECL (MSD) multispot assay, antigen spotted; blank spot of this row 223
[3] = target: Recombinant Human DLL4 (R&D Systems Cat#1506-D4/CF) (human) (UniProt Q9NR61); experiment: ELISA, DLL4 coated on plate, Fab at […] (cells of this row shifted one column left)
[4] = target: rHuman EGF R/Fc Chimera, CF (R&D Systems Cat#344-ER) (human) (UniProt P00533); experiment: ECL multispot (MSD) binding assay, antigen spotted on plate, Fab 0.04 uM
[5] = target: rHuman ErbB2/Fc Chimera, CF (R&D Systems Cat#1129-ER) (human) (UniProt P04626); experiment: as above
[6] = target: rHuman EGF R/Fc Chimera, CF (R&D Systems Cat#344-ER) (human) (UniProt P00533); experiment: Multispot ECL (MSD) titration; antigen spotted on plate; Fab […]; blank spot 149
[7] = target: rHuman EGF R/Fc Chimera, CF (R&D Systems Cat#344-ER) (human) (UniProt P00533); experiment: Multispot ECL (MSD) titration; antigen spotted on plate; Fab 1570 nM; blank spot 866
[8] = target: rHuman EGF R/Fc Chimera, CF (R&D Systems Cat#344-ER) (human) (UniProt P00533); experiment: Multispot ECL (MSD) titration; antigen spotted on plate; Fab 98.1 nM; blank spot 210
[9] = target: rHuman EGF R/Fc Chimera, CF (R&D Systems Cat#344-ER) (human) (UniProt P00533); experiment: Multispot ECL (MSD) titration; antigen spotted on plate; Fab 392.5 nM; blank spot 338
[10] = target: rHuman EGF R/Fc Chimera, CF (R&D Systems Cat#344-ER) (human) (UniProt P00533); experiment: MSD Multispot ECL, antigen spotted on plate, Fab at 15 nM; blank spot 261
[11] = target: rHuman ErbB2/Fc Chimera, CF (R&D Systems Cat#1129-ER) (human) (UniProt P04626); experiment: as above
[12] = target: rHuman HGF R/c-MET/Fc Chimera, CF (R&D Systems Cat#358-MT/CF) (human) (UniProt P08581); experiment: as above
[13] = target: rHuman IGF-1 sR, (IGF-1 sR), CF (R&D Systems Cat#391-GR) (human) (UniProt P08069); experiment: as above
[14] = target: rHuman EGF R/Fc Chimera, CF (R&D Systems Cat#344-ER) (human) (UniProt P00533); experiment: MSD Multispot ECL, antigen spotted on plate, Fab at 30 nM; blank spot 213
[15] = target: rHuman ErbB2/Fc Chimera, CF (R&D Systems Cat#1129-ER) (human) (UniProt P04626); experiment: as above
[16] = target: rHuman HGF R/c-MET/Fc Chimera, CF (R&D Systems Cat#358-MT/CF) (human) (UniProt P08581); experiment: as above
[17] = target: rHuman IGF-1 sR, (IGF-1 sR), CF (R&D Systems Cat#391-GR) (human) (UniProt P08069); experiment: as above
[18] = target: rHuman EGF R/Fc Chimera, CF (R&D Systems Cat#344-ER) (human) (UniProt P00533); experiment: MSD Multispot ECL, antigen spotted on plate, Fab at 60 nM; blank spot 237
[19] = target: rHuman ErbB2/Fc Chimera, CF (R&D Systems Cat#1129-ER) (human) (UniProt P04626); experiment: as above
[20] = target: rHuman HGF R/c-MET/Fc Chimera, CF (R&D Systems Cat#358-MT/CF) (human) (UniProt P08581); experiment: as above
[21] = target: rHuman IGF-1 sR, (IGF-1 sR), CF (R&D Systems Cat#391-GR) (human) (UniProt P08069); experiment: as above
[22] = target: rHuman EGF R/Fc Chimera, CF (R&D Systems Cat#344-ER) (human) (UniProt P00533); experiment: MSD Multispot ECL, antigen spotted on plate, Fab at 120 nM; blank spot 363
[23] = target: rHuman ErbB2/Fc Chimera, CF (R&D Systems Cat#1129-ER) (human) (UniProt P04626); experiment: as above
[24] = target: rHuman HGF R/c-MET/Fc Chimera, CF (R&D Systems Cat#358-MT/CF) (human) (UniProt P08581); experiment: as above
[25] = target: rHuman IGF-1 sR, (IGF-1 sR), CF (R&D Systems Cat#391-GR) (human) (UniProt P08069); experiment: as above
[26] = target: rHuman EGF R/Fc Chimera, CF (R&D Systems Cat#344-ER) (human) (UniProt P00533); experiment: MSD Multispot ECL, antigen spotted on plate, Fab at 240 nM; blank spot 316
[27] = target: rHuman ErbB2/Fc Chimera, CF (R&D Systems Cat#1129-ER) (human) (UniProt P04626); experiment: as above
[28] = target: rHuman HGF R/c-MET/Fc Chimera, CF (R&D Systems Cat#358-MT/CF) (human) (UniProt P08581); experiment: as above
[29] = target: rHuman IGF-1 sR, (IGF-1 sR), CF (R&D Systems Cat#391-GR) (human) (UniProt P08069); experiment: as above
[30] = target: rHuman EGF R/Fc Chimera, CF (R&D Systems Cat#344-ER) (human) (UniProt P00533); experiment: MSD Multispot ECL, antigen spotted on plate, Fab at 3.8 nM; blank spot 198
[31] = target: rHuman ErbB2/Fc Chimera, CF (R&D Systems Cat#1129-ER) (human) (UniProt P04626); experiment: as above
[32] = target: rHuman HGF R/c-MET/Fc Chimera, CF (R&D Systems Cat#358-MT/CF) (human) (UniProt P08581); experiment: as above
[33] = target: rHuman IGF-1 sR, (IGF-1 sR), CF (R&D Systems Cat#391-GR) (human) (UniProt P08069); experiment: as above
[34] = target: rHuman EGF R/Fc Chimera, CF (R&D Systems Cat#344-ER) (human) (UniProt P00533); experiment: MSD Multispot ECL, antigen spotted on plate, Fab at 480 nM; blank spot 362
[35] = target: rHuman ErbB2/Fc Chimera, CF (R&D Systems Cat#1129-ER) (human) (UniProt P04626); experiment: as above
[36] = target: rHuman HGF R/c-MET/Fc Chimera, CF (R&D Systems Cat#358-MT/CF) (human) (UniProt P08581); experiment: as above
[37] = target: rHuman IGF-1 sR, (IGF-1 sR), CF (R&D Systems Cat#391-GR) (human) (UniProt P08069); experiment: as above
[38] = target: rHuman EGF R/Fc Chimera, CF (R&D Systems Cat#344-ER) (human) (UniProt P00533); experiment: MSD Multispot ECL, antigen spotted on plate, Fab at 7.5 nM; blank spot 217
[39] = target: rHuman ErbB2/Fc Chimera, CF (R&D Systems Cat#1129-ER) (human) (UniProt P04626); experiment: as above
[40] = target: rHuman HGF R/c-MET/Fc Chimera, CF (R&D Systems Cat#358-MT/CF) (human) (UniProt P08581); experiment: as above
[41] = target: rHuman IGF-1 sR, (IGF-1 sR), CF (R&D Systems Cat#391-GR) (human) (UniProt P08069); experiment: as above

rHuman HGF R/c-MET/Fc Chimera, CF (R&D Systems Cat#358-MT/CF) (human), sequence (P08581 25-932, change not shown): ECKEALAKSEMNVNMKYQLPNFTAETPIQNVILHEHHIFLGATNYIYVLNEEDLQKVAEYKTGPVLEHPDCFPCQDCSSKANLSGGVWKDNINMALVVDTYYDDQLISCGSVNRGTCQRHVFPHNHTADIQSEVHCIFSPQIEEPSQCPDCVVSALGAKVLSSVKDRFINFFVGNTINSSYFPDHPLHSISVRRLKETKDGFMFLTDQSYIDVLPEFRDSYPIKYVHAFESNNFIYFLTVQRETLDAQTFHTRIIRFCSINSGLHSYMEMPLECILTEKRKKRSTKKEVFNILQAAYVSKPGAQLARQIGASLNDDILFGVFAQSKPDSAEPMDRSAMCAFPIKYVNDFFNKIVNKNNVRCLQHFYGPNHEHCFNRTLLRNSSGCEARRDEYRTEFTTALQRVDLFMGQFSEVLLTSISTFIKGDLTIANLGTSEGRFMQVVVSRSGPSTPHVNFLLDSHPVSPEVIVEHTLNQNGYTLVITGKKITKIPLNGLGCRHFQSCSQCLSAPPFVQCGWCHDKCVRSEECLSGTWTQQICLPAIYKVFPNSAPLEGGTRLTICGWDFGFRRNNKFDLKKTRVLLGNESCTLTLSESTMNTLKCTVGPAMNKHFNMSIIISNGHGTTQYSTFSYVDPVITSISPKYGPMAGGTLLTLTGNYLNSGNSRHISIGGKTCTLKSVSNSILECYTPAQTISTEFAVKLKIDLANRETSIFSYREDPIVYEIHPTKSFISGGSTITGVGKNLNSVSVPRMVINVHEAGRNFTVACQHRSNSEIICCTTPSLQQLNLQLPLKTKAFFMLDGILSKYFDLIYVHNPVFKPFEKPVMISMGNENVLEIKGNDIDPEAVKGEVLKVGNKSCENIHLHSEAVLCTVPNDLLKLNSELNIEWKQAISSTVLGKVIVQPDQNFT

B1: Fab VH5-51_IGHD5-18*01>3_IGHJ4*01 G100K/G104T S84V & V3-4_IGLJ1*01 (Fab, V domains shown)
VH: EVQLVQSGAEVKKPGESLKISCKGSGYSFTSYWIGWVRQMPGKGLEWMGIIYPGDSDTRYSPSFQGQVTISADKSISTAYLQWVSLKASDTAMYYCARRKYSYTYDYFDYWGQGTLVTVSS
VL: QTVVTQEPSFSVSPGGTVTLTCGLSSGSVSTSYYPSWYQQTPGQAPRTLIYSTNTRSSGVPDRFSGSILGNKAALTITGAQADDESDYYCVLYMGSGISYVFGTGTKVTVL
- ECL signal [1]: 1040

B3: Fab VH5-51_IGHD5-18*01>3_IGHJ4*01 G100K/G104T S28R (H:KT S28R) & V3-4_IGLJ1*01 M94R/S96M (L:RM) (Fab, V domains shown)
VH: B1 VH with S28R, V84S
VL: B1 VL with M94R, S96M
- ELISA signal [3]: 0.001

B5: Fab VH1-46_IGHD3-10*01_IGHJ4*01 & O1_IGKJ1*01 (Fab, V domains shown)
VH: QVQLVQSGAEVKKPGASVKVSCKASGYTFTSYYMHWVRQAPGQGLEWMGIINPSGGSTSYAQKFQGRVTMTRDTSTSTVYMELSSLRSEDTAVYYCAREYYYGSGSYYNDYFDYWGQGTLVTVSS
VL: DIVMTQTPLSLPVTPGEPASISCRSSQSLLDSDDGNTYLDWYLQKPGQSPQLLIYTLSYRASGVPDRFSGSGSGTDFTLKISRVEAEDVGVYYCMQRIEFPSWTFGQGTKVEIKR
- ECL signal [6]: 317
- ECL signal [7]: 2480
- ECL signal [8]: 4390
- ECL signal [9]: 744

B6: Fab VH6-1_IGHD3-3*01_IGHJ4*01 & V4-3_IGLJ4*01 (Fab, V domains shown)
VH: QVQLQQSGPGLVKPSQTLSLTCAISGDSVSSNSAAWNWIRQSPSRGLEWLGRTYYRSKWYNDYAVSVKSRITINPDTSKNQFSLQLNSVTPEDTAVYYCAREYYDFWSGYYTDYFDYWGQGTLVTVSS
VL: QPVLTQPTSLSASPGASARLTCTLRSGINLGSYRIFWYQQKPESPPRYLLSYYSDSSKHQGSGVPSRFSGSKDASSNAGILVISGLQSEDEADYYCMIWHSSASFVFGGGTQLIIL
- ECL signal [10]: 584
- ECL signal [11]: 713
- ECL signal [12]: 694
- ECL signal [13]: 705
- ECL signal [14]: 585
- ECL signal [15]: 726
- ECL signal [16]: 640
- ECL signal [17]: 697
- ECL signal [18]: 679
- ECL signal [19]: 777
- ECL signal [20]: 623
- ECL signal [21]: 654
- ECL signal [22]: 658
- ECL signal [23]: 822
- ECL signal [24]: 785
- ECL signal [25]: 813
- ECL signal [26]: 690
- ECL signal [27]: 833
- ECL signal [28]: 834
- ECL signal [29]: 625
- ECL signal [30]: 511
- ECL signal [31]: 714
- ECL signal [32]: 519
- ECL signal [33]: 463
- ECL signal [34]: 877
- ECL signal [35]: 965
- ECL signal [36]: 951
- ECL signal [37]: 741
- ECL signal [38]: 582
- ECL signal [39]: 695
- ECL signal [40]: 558
- ECL signal [41]: 642

Next, values leading:

- ECL signal [2]: 1090
B2: Fab VH5-51_IGHD5-18*01>3_IGHJ4*01 G100K/G104T S84L & V3-4_IGLJ1*01 (Fab, V domains shown)
VH: B1 VH with V84L
VL: B1 VL

- ECL signal [4]: 1060
- ECL signal [5]: 1290
B4: Fab VH5-51_IGHD5-18*01>3_IGHJ4*01 G100K/G104T (H:KT) & V3-4_IGLJ1*01 G97A (Fab, V domains shown)
VH: B1 VH with V84S
VL: B1 VL with G97A

Reference: patent US20120316071A1
